Test results taken from a protein production outcome set (Wang et al. 2014).

Assay: label from the status in PepcDB records

Sequence	protein production
MGLVIYDTLARRKVPFEPAVPGHVGIYVCGPTVYADPHLGHARGPVVYDVLRRYLLHKGYKVRFVSNITDVGHLTDDADEGEDKIVRRAKLERLEPMEVAEKYTWSYFDAMQALNVLRPSIAPRASGHIPEMLELTERLLARGVAYERKGSVYFRVRSFPEYGKLSGKRLEELRAGARVEVREEKEDPLDFALWKAAEPGHIMRWKSPWGEGYPGWHIECTAMSLKYLGEGFDLHAGGIDLQFPHHECEIAQAEAAGFRFARHWMHHNHVLLEGEKMAKSTGNLVLLHDLLEAHEPMALRFYLLQTHYRSPMDFTWEGLESAKRGYGRLLHAYREVRGRKKTAPPGTTPELERALDALEKAFMEAIEDDLSTPEALAALFAFLPELHKLLPEAKAESLARAEAVFHTLGEGILGLFPERVLEERVSGPLLEGLIALLLELREEARRAKDYEKSDLIRERLRALGVIVEDTKEGPRWRLER	not failed
MGLWAAVHAERRGIATIIADAGRLGGGASGGLLGALMPHMPDRWSEKKQFQFDALVSLEAEIAALEAATGLSAGYNRSGRLIPLPKPHLNRIARGHSEDAERHWQAGERRFHWHVVDRPDADGWVDASAGASGFVHDTLAARVAPRSLMSALIASLRQAKFVRILEYAAVAGLDPDRGTADIGGETIAFSRCILAAGHQSFPLLQELTLGPKKPLGQPVKGQATLLKAAIDPALPTIFLDGLYIVAHEGGHVAIGSTSENRFNDPFSTDAQLDALIETARAIVPILRDAPVVERWAGLRPKAIDRDPMIGCHPDHPRLIALTGGFKVSFGLAHRLAEAAVCIADDIDCEYLLPESFAISSHIAAASR	failed
MGMAASFARASSVIMPAPPRRYFSRQRFHNFRRLAIIGSKATRSGDTAAMTDGKHLDALTAAYAAKRPEEVAALYDRWSRTYDADMSAAGYRHPTICLALLTRHLPRGAAPLLDAGAGTGLIGEWLDISGYPEVEALDISQGMLDQAARKGVYSALHCLALGGALPFADDAYAGIVSAGVFTSGHVGVEGLNELIRICRPGGVIVLTVKNTLWEQGFAARIAELEAQGVVTRAEETRPYVSMPGEADTVPSRGLALRVN	failed
MGMGSNGELKYEISQNAYIKLVLHSLRHKTAAVNGVLVGRISPKDDGVVEISDSVPLFHSNLALLPPLEISLIMIEEHYVAQGLSIVGYFHANERFDDVELCGVAKNIGDHISRYFPQAPILLLNNKKLEALSKGKERSPVMQLCVKDASKNWRVVGADGGSKLLLKEPSANVVLSDYISSEKWKDVTDVDDHLDDVTKDWLNPGLFN	failed
MGMHGAAHIVWDWNGTLFHDNAAIIGATNAAFAELGLEPITLERYRALYCVPVPKFYERLIGRLPTDAEWEIMDEIFHRYYAEHRVGCGLTEGAAELLVEWQSAGHSQSILSMYVHDELVPLVRGFGIEPHFIRVDGRTGPSGGSKAEHMVRHIGALAGVAGVDPARTVVIGDAADDAVAALHVGAQAVLYTGGSHSRASLEGVGVPVVDTLAEAVEEAGRLAA	failed
MGMIGYFAEIDSEKINQLLESTEKPLMDNIHDTLSGLRRLDIDKRWDFLHFGLTGTSAFDPAKNDPLSRAVLGEHSLEDGIDGFLGLTWNQELAATIDRLESLDRNELRKQFSIKRLNEMEIYPGVTFSEELEGQLFASIMLDMEKLISAYRRMLRQGNHALTVIVG	not failed
MGMMSSLRRLGKRRPVLGILFVVVLSIGLVGSYAIFSTPKAPVAPSESQAQAPDANQQAEAMQKAAQEQISKLETDIANLQKDLQAKPGDIATAVKLGDSQYNLGTLYLFVNGDQEKATQTFKAAVATYQQVLKLNPAEKGINLRLAGAALYAGDSKLAEDNFQAAIKADPNDNNARMTYGMYLASMKGDYQGAIDQWQEILKHNPDKDLATQVQEMIKQAETAKQDANKSAANQPPANQPQANGGQGSGK	failed
MGNAGESKKSNSDSAKGEEKASGSLTISGSSAMQPLVLAAAEKFMEENPDADIQVQAGGSGTGLSQVSEGAVQIGNSDVFAEEKEGIDAKALVDHQVAVVGMAAAVNPDAGVKDISKDELKKIFTGKIKNWKELGGKDQKITLVNRPDSSGTRATFVKYALDGAEPAEGITEDSSNTVKKIIADTPGAIGYLAFSYLTDDKVTALSIDGVKPEAKNVATGEYPIWAYQHSYTKGEATGLAKEFLDYLKSEDIQKSIVTDQGYIPVTDMKVTRDANGKQSLEHHHHHH	failed
MGNCCGTAGSLAQNDNKPKKGRKKQNPFSIDYGLHHGGGDGGGRPLKLIVLNDPTGREIESKYTLGRELGRGEFGVTYLCTDKETDDVFACKSILKKKLRTAVDIEDVRREVEIMRHMPEHPNVVTLKETYEDEHAVHLVMELCEGGELFDRIVARGHYTERAAAAVTKTIMEVVQVCHKHGVMHRDLKPENFLFGNKKETAPLKAIDFGLSVFFKPGERFNEIVGSPYYMAPEVLKRNYGPEVDIWSAGVILYILLCGVPPFWAETEQGVAQAIIRSVLDFRRDPWPKVSENAKDLIRKMLDPDQKRRLTAQQVLDHPWLQNAKTAPNVSLGETVRARLKQFTVMNKLKKRALRVIAEHLSDEEASGIREGFQIMDTSQRGKINIDELKIGLQKLGHAIPQDDLQILMDAGDIDRDGYLDCDEFIAISVHLRKMGNDEHLKKAFAFFDQNNNGYIEIEELREALSDELGTSEEVVDAIIRDVDTDKDGRISYEEFVTMMKTGTDWRKASRQYSRERFNSISLKLMQDASLQSCVFDILANERAEYGDQERKTVLAFGCV	failed
MGNIIRALVAFIPTDRCQSYVVGDLREMPLDRMVDLSGSQLRRFPLHVCSFTELVKLYLSDNHLHSLPPDLAQLQNLQILALDFNNFKALPQAVCTLKQLCILYLGNNKLCDLPDELSLLQNLRTLWLESNCLTRLPDVVCELSLLKTLHAGSNALRLLPGQLRRLRELRTIWLSGNQLADFPSVLLHMPFLEVIDVDRNSIRYFPSLAHLTNLKLVIYDHNPCRNAPKVGKGVRRVGRWAEETPEPDRRKTRRSALAKEENQEPPPLLPPSS	failed
MGNILKDKSMAFAIQIVNLHKYPNKRKAYSLSDQILISGTAIGVLQKETECAESNADFIHNIASPQKNVTKPFSGLNCYLKQNIYPKQNIQACLQTQMNLEHHHHHH	failed
MGNIYQITVEEKAEHQRTLSFEFSLHDDLFKLLEKVDGKMDMTPEQTQAFMVGLKLFGEVMMQQRKHPLFKEFSAPFRAFMMNLKKQ	not failed
MGNLSKPVGIGAGGLDLLMPMHLRLDPLGEIAGCGPTLRKLFAESPVRRPFFDLFKVRRPTGIETPAALAARTGVRLHLTTLDGGVSLRGVATPKHEGRGLLLNLSFGISVIEAVRRHGLTDGDFAPTDLAVELLYLVEAKTAVAEELRRLNGRLERARRLAEEEALTDELTGLRNRRAIDQALEAVIATRRPFGLMHLDLDFFKEVNDSFGHAAGDEVLRAVAQVLSRETRTGDTVARIGGDEFMMLFPGLSDPAPMKRLAARVIADVARPIPFGGGVCRVSASIGMTLSVRYDRPDLARMLADADEALYAAKRAGRGTAVLSEGMRPERRRDP	failed
MGNYKFRISEMLPNAWFHKLKDVTKHSKPKNKASSSSSNTCSKKKPSSDSLPQHSYFSNSLVANNPPHHNSPRNSLHTKKMSKRKTLYKPSLKPLTPPPLLVSASFNKSKINDQDSSYSLFPAIETSPESFVYSFYEEDDDDEFVEFSNFKINTKNKAFTKQKVKVIDSVEKACTASKPIKKPQKSHLSVKISRDEDDNEYKAEKKYQRQVSSGRKPSAGINLKRVNSPRIQLSGTRRSTSRRSESKQDVLESFAVMKRSVDPKKDFRESMIEMIEENNIRASKDLEDLLACYLTLNPKEYHDLIIHVFEQIWLQLTKTK	failed
MGNYLLRKLSCLGENQKKPKKGNPDEERKRQEMTTFERKLQDQDKKSQEVSSTSNQENENGSGSEEVCYTVINHIPHQRSSLSSNDDGYENIDSLTRKVRQFRERSETEYALLRTSVSRPCSCTHEHDYEVVFPH	not failed
MGPAVKKASKGILSDVLKCLTNNIKHMREFTLAVVDKMVAGLSDFVDATHLLKPASNRSD	failed
MGPKVSVITVCYNAEEFIENAIYSVLNQSYENIEYIIIDGASKDNTVSIINKYRSVMACFISEPDKGMYEAMNKGIKAATGDILYFLNSDDVFYDEYVVENVVKVFQKNNNVELIYGPIIIRDPTTNESFIKPHDYITKSYFIYNSICQQGIFYKASVFNKCGQFNDTYKIVGDYEWELRAFYKYNIKRKYYEGIIAIFRDGGMCNCDKFSDLHAKERTKVIKEYFNIFVIYKYKFLLFCRSAIKRLELEHHHHHH	failed
MGQAPDRPHLETFLARLRAGAKILELGCGGGQDSEYMLSAGFDVHPTDGTPDIAKAAQARLGIPVRTLLFENIEDAALYDAVWANACLLHVPRLALPGIIGRIHTALKPGGVFYASFKAGEVEGRDTFGRYYNYPSKAWLEETYGQFAWTEVEIEARQGSGYDKLPTDWLHVTATKALEHHHHHH	failed
MGQMFGVACIDEQSGIVGQAWNNNSVRYISIDEDAVITIQSGPVVGKVAVSNDKTLAYGATINGANTVYVYKKSQAWVPSRLSDISSGTDVWAVALNGDNQWLYYVTANGRLGRIEVDNPTHNEILFEHNDFSGGPFAYIAYSAFEDCFYVTTDKNKILKVWVKEDGTHAYEQINQNNTGTTDGFLADEAKFQYLRGLTIDEDGNIFVCQGDNSHVIRKIAYDENMEKRYVTTVLGTSTVHGTDDGSPDIALFNGPQDISYDGNGGYWIAMRYEPALRKYSIELEHHHHHH	failed
MGQPVASKGRGATPTVGKAMLNKYARAFFTRVLTPFAAFLIRRGVSPDTVTLLGTAGVVAGALVFYPMGEFFWGTVVITLFVFSDLVDGNMARQLGRSSRWGAFLDSTLDRVADGAIFGGLALWYAGGGDDIVLCAVSIFCLASGQVVSYTKARGEAIGLPVAVNGLVERAERLVVSLVAAGFAGLHKFGVPGIQYLLPIALWIVAVGSLVTLVQRVVTVRREAAEADAAAQESQGTEAAK	failed
MGRCSHGLREGRRGEPVRDPTPLDRAGCSVLPGGAKLYYSMAFKMHVPPRGSGHIEEPRRLDKALKALKKSRLLDMLEKVDPGFQSLRVFETVHDPLYIKGILAELEAALDSYFIDSDTYISPGTQAALEALAASVEQASEHVAEGGKALVLGRPPGHHAGVAGPGLGAPSLGACLVNAAASLAYRLAGRGLKVLILDFDANHGNGTQEILQALPMGDRLFHLDMHQDWRKSFPWTGEPGVTGDGTALNIVLPEGSGDDIVLALIEGLEPLVNESEPDAVVVSMGFDGYSGDSPLTLTKLTSHTFHALGRLASRYPVAAVLETGFGRGLELGLPAFIAGLLGLGNPVQEEAIKSDEEVWREFLETNKEVVEHG	failed
MGRFHQYQPRQLSVASVNHADDNDRLPAISLVTPSFNQASFVEKTLESVLGQNYPKLQYIVQDGLSTDGTREILGRYATRNVDIRIETDGGQTDALNKGFAHADGEIMGYLNSDDLLLPGTLCLVGRYFRDNPSVDVIYGNRLIVDEAGREVGRWVLPEHDSEILTFIDYVPQETMFWRRRIWERVGGRFDTDFHFAMDWELLLRFIHAGAVFRHLPGLFGAFRVHGQQKSQAEFLVRGIGEMNGLRLRYGGRNISFVRRIALHWAYLSQHRLADAAFEASLRKNG	failed
MGRGYEVISTEVCPLCKGKGKSKSVDFMKISEKDIDSFLKNGAVCEKCKGKGSIEITRPCEACEGLGKIYTCKVCGARIHNPEDAEDEICSTCARSQHVYALDESCDLEHHHHHH	not failed
MGRKIVFFDIDGTLLDEQKQLPLSTIEAVRRLKQSGVYVAIATGRAPFMFEHVRKQLGIDSFVSFNGQYVVFEGNVLYKQPLRREKVRALTEEAHKNGHPLVFMDAEKMRASIGDHPHIHVSMASLKFAHPPVDPLYYENKDIYQALLFCRAEEEEPYVRNYPEFRFVRWHDVSTDVLPAGGSKAEGIRMMIEKLGIDKKDVYAFGDGLNDIEMLSFVGTGVAMGNAHEEVKRVADFVTKPVDKEGIWYGLKQLQLIR	not failed
